PMC11088876, “Activin E is a transforming growth factor β ligand that signals specifically through activin receptor-like kinase 7” (Biochemical Journal, 2024)

Target: the molecule itself
Assay: SDS-PAGE under non-reducing and reducing conditions with anti-Flag western blot; conditioned medium of transfected ExpiCHO-S cells; 15% SDS gels; covalent (disulfide-linked) dimer against monomer

B1: Flag-tagged mature ActE from Construct II (ligand, human, UniProt P58166 237-350, looked up)
chain: TPTCEPATPLCCRRDHYVDFQELGWRDWILQPEGYQLNYCSGQCPPHLAGSPGIAASFHSAVFSLLKANNPWPASTSCCVPTARRPLSLLYLDHNGNVVKTDVPDMVVEACGCS
notes: A233R lies in the furin site before the cut and is surmised not to stand in the mature chain; Furin processing was incomplete: the medium also holds singly and doubly unprocessed species and a smaller clipping product; also called Flag-ActE; ActE Construct II; source: ExpiCHO-S, transfected, conditioned medium (concentrated 20x); not shown: Flag, N-terminal, kept
In the case of B1, the “stoichiometry N” value is reported as 2.
